Target: HH-120 (IgM-like hACE2-Fc fusion protein) (UniProt Q9BYF1)
Experiment: SPR

**Q.** “SARS-CoV-2 RBD (amino acids 316-512 of the S protein in the SARS-CoV-2 D614 strain) (from UniProt P0DTC2 316-512) (domain or fragment)” was tested. Which Kd did it give?
**A.** 0.0264 µM
